According to PMC6200327 (The Biochemical journal, 2018):

Target: the molecule itself
Experiment: crystal structure

B1: mouse RIG-I CARDs (residues 1-189), bacterially expressed (domain or fragment, UniProt Q6Q899 1-189, looked up)
chain: MTAEQRQNLQAFRDYIKKILDPTYILSYMSSWLEDEEVQYIQAEKNNKGPMEAASLFLQYLLKLQSEGWFQAFLDALYHAGYCGLCEAIESWDFQKIEKLEEHRLLLRRLEPEFKATVDPNDILSELSECLINQECEEIRQIRDTKGRMAGAEKMAECLIRSDKENWPKVLQLALEKDNSKFSELWIVD
stoichiometry N: 4
